# From patent US20150368309A1 (SHIRE HUMAN GENETIC THERAPIES, published 2015)
# Where “and” joins values, the source holds several entries; their conditions need not be identical. Equal values may be shown once.
# T1: mouse sFlt-1 (mouse, UniProt P35969 23-759, limits assumed)
# T1 construct: also called msFlt-1
# T1 sequence (looked up): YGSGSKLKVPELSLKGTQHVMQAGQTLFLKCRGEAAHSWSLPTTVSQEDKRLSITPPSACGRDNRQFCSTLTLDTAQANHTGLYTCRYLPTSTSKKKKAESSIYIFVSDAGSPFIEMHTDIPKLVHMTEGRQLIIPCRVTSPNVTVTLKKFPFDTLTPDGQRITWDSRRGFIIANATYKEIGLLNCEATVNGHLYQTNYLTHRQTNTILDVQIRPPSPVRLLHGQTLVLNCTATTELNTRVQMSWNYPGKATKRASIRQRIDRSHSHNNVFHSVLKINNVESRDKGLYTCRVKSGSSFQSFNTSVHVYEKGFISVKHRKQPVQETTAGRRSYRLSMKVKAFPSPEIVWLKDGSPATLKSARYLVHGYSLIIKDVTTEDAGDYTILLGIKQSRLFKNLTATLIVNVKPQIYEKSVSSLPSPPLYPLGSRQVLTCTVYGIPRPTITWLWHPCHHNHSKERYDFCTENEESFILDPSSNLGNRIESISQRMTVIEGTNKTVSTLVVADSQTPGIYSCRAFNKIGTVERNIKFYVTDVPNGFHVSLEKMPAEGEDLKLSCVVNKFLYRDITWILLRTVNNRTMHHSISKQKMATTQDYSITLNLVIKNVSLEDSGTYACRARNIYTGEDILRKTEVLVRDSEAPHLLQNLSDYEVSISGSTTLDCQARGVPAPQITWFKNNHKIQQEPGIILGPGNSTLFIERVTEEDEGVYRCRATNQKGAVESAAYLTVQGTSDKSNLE
# B1: PLGF C59A (ligand)
# chain: LPAVPPQQWALSAGNGSSEVEVVPFQEVWGRSYCRALERLVDVVSEYPSEVEHMFSPSAVSLLRCTGCCGDENLHCVPVETANVTMQLLKIRSGDRPSYVELTFSQHVRCECRPLREKMKPERCGDAVPRRHHHHHH
# notes: Expressed in human fibrosarcoma cells, purified on a Nickel column, glycosylated; RC4 96.7% monomer; R3 97.1% monomer, formulated in 1 mM DTT; also called C59A PLGF; not shown: Tev protease cleavage site added at the C-terminus
# B2: wild-type human PLGF protein (ligand)
# chain: LPAVPPQQWALSAGNGSSEVEVVPFQEVWGRSYCRALERLVDVVSEYPSEVEHMFSPSCVSLLRCTGCCGDENLHCVPVETANVTMQLLKIRSGDRPSYVELTFSQHVRCECRPLREKMKPERCGDAVPRR
# notes: also called WT PLGF; Human WT-PLGF
# B3: mouse WT PLGF (ligand, UniProt P49764 19-158, looked up)
# chain: VHSQGALSAGNNSTEVEVVPFNEVWGRSYCRPMEKLVYILDEYPDEVSHIFSPSCVLLSRCSGCCGDEGLHCVPIKTANITMQILKIPPNRDPHFYVEMTFSQDVLCECRPILETTKAERRKTKGKRKRSRNSQTEEPHP
# Experiments:
# mouse sFlt-1 [1] = molecular target: T1, mouse sFlt-1; assay: SPR, capture approach
# Description: (§1) In the capture approach, goat anti-hIgG Fc polyclonal antibody (30 μg/mL in 10 mM acetate buffer, pH 5.0) was immobilized onto a CM5 chip by amine coupling. The immobilization level or surface density of anti-hIgG Fc antibody was controlled between 6000 to 8000 RU. For the kinetic study, sFlt-1-Fc was captured on the surface that was immobilized with the anti-hIgG Fc antibody, before each injection of PLGF variants. The capture level of sFlt-1-Fc (10 μg/mL) was controlled by varying contact time, 10 to 30 seconds, at flow rate 10 μL/min. PLGF variants, as analytes, were serially diluted in HBS-EP+ buffer from 50 to 0.03 nM, and injected to the surface that captured sFlt-1-Fc. The association time for each PLGF variants injection was 300 seconds at 30 μL/min and dissociation time was 600 seconds at the same flow rate. After each round of PLGF variants' injection, a regeneration of […] H3PO4 pH1.8 at 60 μl/min for 90 seconds was performed. The regeneration step effectively removes the complex of sFlt-1-Fc and PLGF variants from the surface that was immobilized with anti-hIgG Fc antibody. A stabilization step was applied for 90 seconds after regeneration.
# (§2) The binding characteristics of PLGF variants, PLGF C59A, human WT PLGF and mouse WT PLGF, with msFlt-1 were studied in the mouse model. The same capture approach for hsFlt-1 was used for the msFlt-1.
# human sFlt-1-Fc [2] = molecular target: T2, human sFlt-1-Fc (human, UniProt P17948-2 27-687, limits assumed); assay: SPR (Biacore T200), hsFlt-1-Fc, 1:1 model; column 'KD (M) Average' of the two runs
# T2 construct: A bought fusion protein; also called hsFlt-1-Fc; hsFlt-1-Fc dimer; not shown: Fc part (captured and detected with anti-human IgG Fc)
# T2 sequence (P17948 other isoform, or with tags, fused parts or gaps limits assumed): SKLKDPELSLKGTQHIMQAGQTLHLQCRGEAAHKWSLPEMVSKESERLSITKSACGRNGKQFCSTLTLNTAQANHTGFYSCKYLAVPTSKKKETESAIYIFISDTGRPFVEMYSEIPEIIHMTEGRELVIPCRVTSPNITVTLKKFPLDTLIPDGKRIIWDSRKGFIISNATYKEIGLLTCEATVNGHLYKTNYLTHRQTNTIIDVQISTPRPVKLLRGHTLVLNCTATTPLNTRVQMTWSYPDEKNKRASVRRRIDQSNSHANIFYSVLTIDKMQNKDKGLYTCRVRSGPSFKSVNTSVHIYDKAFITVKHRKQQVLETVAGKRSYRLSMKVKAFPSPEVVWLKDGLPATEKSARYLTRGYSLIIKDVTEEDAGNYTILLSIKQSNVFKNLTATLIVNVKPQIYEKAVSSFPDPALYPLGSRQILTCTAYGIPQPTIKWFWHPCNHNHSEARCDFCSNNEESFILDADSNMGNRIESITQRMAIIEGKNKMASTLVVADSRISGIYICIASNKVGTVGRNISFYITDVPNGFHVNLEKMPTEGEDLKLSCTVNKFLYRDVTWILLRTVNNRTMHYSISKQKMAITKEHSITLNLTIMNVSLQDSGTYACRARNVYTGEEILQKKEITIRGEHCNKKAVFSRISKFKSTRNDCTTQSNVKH
# human sFlt-1-Fc [3] = molecular target: T2, human sFlt-1-Fc; assay: surface plasmon resonance (BIACORE), overlaid multi-cycle sensorgrams with 1:1 binding model fit; the sheet says only 'sFlt-1', neither species nor format is printed
# human sFlt-1-Fc [4] = molecular target: T2, human sFlt-1-Fc; assay: isothermal titration calorimetry, PLGF C59A in the syringe titrated into sFlt-1-Fc in the cell, 25 C, PBS pH 7.4, model OneSites
# Description: (§3) PLGF C59A and human sFlt-1-Fc (Cat#321-FL/CF, R&D System) were extensively dialyzed against PBS pH 7.4 buffer overnight. After dialysis, the proteins were concentrated using VIVISPIN 500 (10 kDa Cutoff, Cat# vs0601). The ratio of PLGF C59A in syringe to sFlt-1-Fc in the cell was about 10:1, with PLGF C59A concentration to be 77 μM, and the concentration of sFlt1-Fc to be 5.3 μM. Titrations were carried out using 2.0-μL injections for total 18 injections. An initial 2-μl injection was carried out but the data not included in the final data analysis. All titrations were done at 25° C. The binding isotherm was fitted with nonlinear regression on ORIGIN (GE MICROCAL, INC). The stoichiometry (N) of the binding interaction, the equilibrium association constant (KA) and enthalpy (ΔH) of the complex formation were calculated from the titration data.
# human sFlt-1-Fc [5] = molecular target: T2, human sFlt-1-Fc; assay: VEGF:sFlt1 inhibition ELISA: binding of human sFlt-1 Fc to immobilized human VEGF in the presence of PLGF, detected with HRP anti-human IgG Fc, normalized to binding without PLGF
# Description: Inhibition of binding of VEGF to sFlt-1 by WT PLGF and PLGFC59A was also assessed by ELISA. The addition of recombinant human […] inhibited binding of recombinant VEGF to recombinant human sFlt-1 chimera (FIG. 6). Binding of human sFlt-1 Fc to immobilized human VEGF was quantified by immunodetection with HRP conjugated anti-human IgG Fc. Data were normalized to binding sFlt-1 Fc to VEGF in the absence of PLGF.
# mouse sFlt-1 [6] = molecular target: T1, mouse sFlt-1; assay: SPR (Biacore T200), msFlt-1 captured, PLGF as analyte, 1:1 model
# Description: as §1, §2
# human sFlt-1-Fc [7] = molecular target: T2, human sFlt-1-Fc; assay: SPR (Biacore T200), hsFlt-1-Fc, 1:1 model; format of this run (capture or single cycle) not marked in the table
# Description: In the single cycle kinetic approach, PLGF C59A at 50 μg/ml in 10 mM acetate buffer pH 5.0 was immobilized via ligand thiol coupling to ˜200 RU. sFlt-1-Fc dimer was serially diluted in HBS-EP+ running buffer from 30 to 1.875 nM. The sFlt-1-Fc dimer was injected from low to high concentration sequentially, without dissociation phase and regeneration step. The association step was 180 seconds per injection at 30 μL/min. At the end of the last injection, one single dissociation step was performed at 30 μL/min, for one hour to collect sufficient dissociation data.
# Due to the nonspecific binding of hsFlt-1 on the reference cells and the poor regeneration conditions for PLGF C59A, a single cycle kinetic method were adopted by immobilizing PLGF C59A vial thiol coupling, and injecting hsFlt-1 as analyte. In the single cycle kinetic approach, PLGF C59A was immobilized onto CM4 chips through free cysteine residuals, C69 and C125, in PLGF C59A. Concentration of the Flt1-Fc dimer injected was varied from 0.37 to 30 nM. The binding characteristics, association rate constant (Ka), dissociation rate constant (Kd) and equilibrium dissociation constant (KD), are summarized in Table 6.
# human sFlt-1-Fc [8] = molecular target: T2, human sFlt-1-Fc; assay: isothermal titration calorimetry, PLGF C59A (77 uM) titrated into sFlt-1-Fc (5.3 uM), 25 C, PBS pH 7.4
# Description: as §3
# mouse sFlt-1 [9] = molecular target: T1, mouse sFlt-1; assay: SPR (Biacore T200), msFlt-1 captured, 1:1 model; column 'KD (M) Average' of the two runs
# Description: as §1, §2
# [10] = molecular target: Flt-1 receptor (plate based assay) (Homo sapiens (Human), UniProt P17948 27-758); assay: plate based assay: Flt-1 captured by coated mouse monoclonal anti-Flt-1 antibody, bound PLGF detected with biotinylated goat anti-PLGF antibody and streptavidin-HRP, OD450
# Chain of Flt-1 receptor (plate based assay) (P17948 27-758 limits assumed): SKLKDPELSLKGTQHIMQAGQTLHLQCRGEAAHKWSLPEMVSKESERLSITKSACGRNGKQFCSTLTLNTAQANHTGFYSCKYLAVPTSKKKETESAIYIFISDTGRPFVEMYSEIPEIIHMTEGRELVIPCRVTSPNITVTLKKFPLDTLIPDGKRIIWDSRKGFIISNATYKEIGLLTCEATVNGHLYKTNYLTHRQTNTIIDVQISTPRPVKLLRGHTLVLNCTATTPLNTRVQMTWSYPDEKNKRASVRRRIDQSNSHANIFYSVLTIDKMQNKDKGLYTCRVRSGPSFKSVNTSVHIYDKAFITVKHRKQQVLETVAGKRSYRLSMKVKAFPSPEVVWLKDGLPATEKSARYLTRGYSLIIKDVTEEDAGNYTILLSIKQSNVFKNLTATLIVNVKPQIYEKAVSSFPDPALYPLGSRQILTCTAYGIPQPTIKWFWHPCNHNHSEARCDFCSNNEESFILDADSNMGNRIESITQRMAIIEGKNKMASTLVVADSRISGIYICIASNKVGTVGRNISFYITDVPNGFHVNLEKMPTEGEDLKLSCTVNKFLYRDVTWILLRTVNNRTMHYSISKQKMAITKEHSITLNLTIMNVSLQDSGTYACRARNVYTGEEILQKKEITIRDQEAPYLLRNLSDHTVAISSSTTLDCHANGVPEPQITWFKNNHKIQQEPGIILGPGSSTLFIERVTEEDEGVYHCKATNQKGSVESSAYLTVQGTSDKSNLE
# Description: A plate based assay was performed to examine the binding of mutant PLGF protein to Flt-1. Briefly, plates were coated with a mouse monoclonal anti-Flt-1 antibody for capture. After washing and blocking steps, 250 ng/ml of Flt-1 receptor was incubated with WT PLGF (0-400,000 pg/ml) or PLGF C59A (0-40,000 pg/ml) in the plate. After further washing steps, bound WT or mutant PLGF were detected using a biotinylated goat anti-PLGF antibody and streptavidin-HRP immunodetection system. PLGF C59A appeared to bind Flt-1 with lower affinity than WT PLGF. (FIG. 1).
# human sFlt-1-Fc [11] = molecular target: T2, human sFlt-1-Fc; assay: SPR (Biacore T200), hsFlt-1-Fc captured by anti-hIgG Fc, PLGF as analyte, 1:1 model
# Description: as §1
# Two BIACORE experiment formats, single cycle kinetics and anti-Fc capture approach, were used to study binding characteristic of PLGF variants with hsFlt-1.
# human sFlt-1-Fc [12] = molecular target: T2, human sFlt-1-Fc; assay: SPR (Biacore T200), hsFlt-1-Fc captured by anti-hIgG Fc, PLGF as analyte, 1:1 model; first of the two unlabelled rows for Human WT-PLGF on Human sFlt-1
binder,measurement,setting,value
B1,fold weaker affinity than human WT PLGF with msFlt-1,mouse sFlt-1 [1],~90 fold
same,fold weaker affinity than mouse WT PLGF with msFlt-1,mouse sFlt-1 [1],~250 fold
same,Kd,human sFlt-1-Fc [2],1.25 nM
same,Kd,human sFlt-1-Fc [3],0.572 nM
same,koff,human sFlt-1-Fc [3],0.000338 s⁻¹
same,kon,human sFlt-1-Fc [3],592000 M⁻¹ s⁻¹
same,Ka,human sFlt-1-Fc [4],2.03e+07 M⁻¹
same,ΔH,human sFlt-1-Fc [4],-12800 cal/mol
same,ΔS,human sFlt-1-Fc [4],-9.4 cal/mol/deg
same,IC50,human sFlt-1-Fc [5],28.3 nM
same,Kd,mouse sFlt-1 [6],7.22 nM and 3.12 nM
same,koff,mouse sFlt-1 [6],0.000496 s⁻¹ and 0.000633 s⁻¹
same,kon,mouse sFlt-1 [6],159000 M⁻¹ s⁻¹ and 87700 M⁻¹ s⁻¹
same,Kd,human sFlt-1-Fc [7],1.61 nM and 0.886 nM
same,koff,human sFlt-1-Fc [7],0.000372 s⁻¹ and 0.000234 s⁻¹
same,kon,human sFlt-1-Fc [7],231000 M⁻¹ s⁻¹ and 264000 M⁻¹ s⁻¹
same,Kd,human sFlt-1-Fc [8],~49 nM
same,Kd,mouse sFlt-1 [9],5.17 nM
B2,Kd,human sFlt-1-Fc [2],0.0405 nM
same,IC50,human sFlt-1-Fc [5],4.59 nM
same,EC50 (read off the curve),[10],~0.2 nM
same,koff,mouse sFlt-1 [6],0.000243 s⁻¹ and 0.000152 s⁻¹
same,kon,mouse sFlt-1 [6],2.73e+06 M⁻¹ s⁻¹ and 6.36e+06 M⁻¹ s⁻¹
same,Kd,human sFlt-1-Fc [11],0.0259 nM and 0.0551 nM
same,koff,human sFlt-1-Fc [11],6.03e-05 s⁻¹ and 8.86e-05 s⁻¹
same,kon,human sFlt-1-Fc [11],1.61e+06 M⁻¹ s⁻¹
same,kon,human sFlt-1-Fc [12],2.33e+06 M⁻¹ s⁻¹
same,Kd,mouse sFlt-1 [9],0.0565 nM
B3,Kd,mouse sFlt-1 [6],0.0301 nM and 0.0109 nM
same,koff,mouse sFlt-1 [6],0.000135 s⁻¹ and 9.69e-05 s⁻¹
same,kon,mouse sFlt-1 [6],4.49e+06 M⁻¹ s⁻¹ and 8.86e+06 M⁻¹ s⁻¹
same,Kd,mouse sFlt-1 [9],0.0205 nM
